According to US20080242601A1 (INSTITUTE PASTEUR, published 2008):
Read-outs that look alike come from different tables or passages of the source. * marks the point of attachment. BODIPYFLEthylmaleimide = Cc1cc(C)n2c1C=C1C=CC(CCC(=O)NCCN3C(=O)CC(*)C3=O)=[N+]1[B-]2(F)F

B1: CC2 (WT) (peptide)
peptide: Ac-SKGMQLEDLRQQLQQAEEALVAKQELIDKLKEEAEQHKIV-NH2
notes: Synthetic peptide; Forms a trimer by gel filtration at 10 uM; also called CC2 peptide; CC2 wild type

Assays:
[1] = target: T1, NEMO (NF-kB essential modulator), murine (murine, UniProt O88522 1-412); assay: cell-based or functional assay
T1 chain: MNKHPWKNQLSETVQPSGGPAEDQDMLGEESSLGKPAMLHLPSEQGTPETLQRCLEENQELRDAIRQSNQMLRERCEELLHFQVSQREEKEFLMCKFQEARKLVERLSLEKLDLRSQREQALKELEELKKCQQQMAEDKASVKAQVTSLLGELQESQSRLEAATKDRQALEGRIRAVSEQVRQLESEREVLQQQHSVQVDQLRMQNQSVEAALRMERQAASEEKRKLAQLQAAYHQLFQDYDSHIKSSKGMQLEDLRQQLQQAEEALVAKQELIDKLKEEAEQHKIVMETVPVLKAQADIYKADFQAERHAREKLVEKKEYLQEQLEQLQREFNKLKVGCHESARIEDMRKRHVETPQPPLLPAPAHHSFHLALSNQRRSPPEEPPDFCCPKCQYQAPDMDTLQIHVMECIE

[2] = target: the molecule itself; assay: gel filtration (Superdex 75) at 10 µM, self-association
Experimental: The oligomeric states of peptides were determined by filtration as described in Traincard et al., 2003. In brief, 500 μl samples were loaded on a Superdex 75 HR 10/30 column equilibrated in 50 mM Tris-HCl pH 8.0 containing 200 mM NaCl and 0.1 mM DDM, at a constant flow rate of 0.4 ml/min. The presence of the DDM detergent was added in the equilibrium buffer to minimize the adsorption in the column and to increase the peptide recovery. The column was calibrated in the same equilibrium buffer with blue dextran 2000 (void volume), dithioerythritol (total volume), bovine serum albumin (67 kDa, Rs=35.2 Å), ovalbumine (43 kDa, Rs=27.5 Å), chymotrypsinogen A (25 kDa, Rs=21.1 Å), ribonuclease A (13.7 kDa, Rs=16.4 Å), cytochrome C (12.4 kDa, Rs=17.7 Å) and aprotinin (6.5 KDa, Rs=13.5 Å).
The antennapedia sequence is a protein transduction domain (PTD) which adopts an alpha-helical amphiphatic structure (Prochiantz, 2000, Curr. Opin. Cell Biol.). […] To examine the effect of N-fusion of the antennapedia peptide on the oligomerization properties of the CC2 and the LZ peptides, the present inventors analyzed peptides containing or not containing the antennapedia sequence at their N-terminus by gel filtration. […]

[3] = target: T1, NEMO (NF-kB essential modulator), murine; assay: cell-based or functional assay
[4] = target: B1; assay: fluorescence anisotropy, fixed BODIPY-Ant-LZ (0.1 µM) with CC2
Experimental: (A) Direct titration of BODIPY-Ant-CC2 (1 μM) with CC2 by fluorescence anitropy. The concentration of CC2 was determined by amino acid analysis. Anisotropy values of BODIPY-Ant-CC2 in milliunits (mA) were plotted against an increasing concentration of the CC2 peptide. […] The two dashed lines represent a stoichiometric titration and intersect at an CC2 concentration of 16 μM. Given the 1 μM concentration of the BODIPY-Ant-CC2, this gives a complex stoechiometrie of 0.8. (B) Direct titration of BODIPY-Ant-LZ (0.1 μM with CC2 by fluorescence anitropy. The anisotropy values of the BODIPY-Ant-LZ alone (white bar) or in the presence of the CC2 peptide (30 μM, grey bar; 100 μM, black bar) are given in milliunits (mA).
Anisotropy measurements were performed with a PTI Quantamaster fluorometer equipped with polarizers for the excitation and emission beams. This instrument uses a PMT in the L-configuration. […] Steady-state fluorescence anisotropy was expressed as millianisotropy (mA) and was calculated according to the equations: (1) A=(I_VV-GIVH)/(IVV+2GIVH); (2) G=IHV/IHH.; where A is anisotropy, G is a correction factor for wavelength-dependent distortion and I is the fluorescence intensity component (subscript referring to the vertical and horizontal positioning at the excitation and emission polarizers, respectively). […]

[5] = target: T1, NEMO (NF-kB essential modulator), murine; assay: cell-based or functional assay

BODIPY-Ant-CC2 (WT) (peptide)
IC50 of inhibition of LPS-induced NF-κB activation (β-galactosidase reporter, 70Z3-C3 cells) [1]: 22000 nM
fold reduction of LPS-induced NF-κB activation at 10 µM (stringent β-galactosidase assay) [1]: 1.7 fold
reduction of NF-κB activity at 20 µM after LPS stimulation of B lymphocytes [1]: 70%

B1
binding result [2]: binds

Ac-C(BODIPYFLEthylmaleimide)RRRRRRRRRLKAQADIYKARFQAERHAREK-NH2 (not fully specified) [BODIPY-R9-NLM-DR]
IC 50 (inhibition of NF-κB activation pathway) [3]: 900 nM

B2: BODIPY-Ant-LZ (WT) (peptide)
peptide: Ac-C(BODIPYFLEthylmaleimide)RQIKIWFQNRRMKWKKLKAQADIYKADFQAERHAREKLVEKKEYLQEQLEQLQREFNKL-NH2
notes: Synthetic fusion peptide; also called cell permeable LZ
binding result [4]: binds
IC50 of inhibition of LPS-induced NF-κB activation (β-galactosidase reporter, 70Z3-C3 cells) [5]: 3000 nM
fold reduction of LPS-induced NF-κB activation at 10 µM (stringent β-galactosidase assay) [5]: 5.8 fold

B3: BODIPY-Ant-NLM-DR (peptide)
peptide: Ac-C(BODIPYFLEthylmaleimide)RQIKIWFQNRRMKWKKLKAQADIYKARFQAERHAREK-NH2
SMILES: CC[C@H](C)[C@H](NC(=O)[C@H](CC(=O)O)NC(=O)[C@H](C)NC(=O)[C@H](CCC(N)=O)NC(=O)[C@H](C)NC(=O)[C@H](CCCCN)NC(=O)[C@H](CC(C)C)NC(=O)[C@H](CCCCN)NC(=O)[C@H](CCCCN)NC(=O)[C@H](Cc1c[nH]c2ccccc12)NC(=O)[C@H](CCCCN)NC(=O)[C@H](CCSC)NC(=O)[C@H](CCCNC(=N)N)NC(=O)[C@H](CCCNC(=N)N)NC(=O)[C@H](CC(N)=O)NC(=O)[C@H](CCC(N)=O)NC(=O)[C@H](Cc1ccccc1)NC(=O)[C@H](Cc1c[nH]c2ccccc12)NC(=O)[C@@H](NC(=O)[C@H](CCCCN)NC(=O)[C@@H](NC(=O)[C@H](CCC(N)=O)NC(=O)[C@H](CCCNC(=N)N)NC(=O)[C@H](CSC1CC(=O)N(CCNC(=O)CCC2=[N+]3C(=Cc4c(C)cc(C)n4[B-]3(F)F)C=C2)C1=O)NC(C)=O)[C@@H](C)CC)[C@@H](C)CC)C(=O)N[C@@H](Cc1ccc(O)cc1)C(=O)N[C@@H](CCCCN)C(=O)N[C@@H](C)C(=O)N[C@@H](CCCNC(=N)N)C(=O)N[C@@H](Cc1ccccc1)C(=O)N[C@@H](CCC(N)=O)C(=O)N[C@@H](C)C(=O)N[C@@H](CCC(=O)O)C(=O)N[C@@H](CCCNC(=N)N)C(=O)N[C@@H](Cc1c[nH]cn1)C(=O)N[C@@H](C)C(=O)N[C@@H](CCCNC(=N)N)C(=O)N[C@@H](CCC(=O)O)C(=O)N[C@@H](CCCCN)C(N)=O
IC 50 (inhibition of NF-κB activation pathway) [3]: 1100 nM

B4: BODIPY-R7-NLM-DR (peptide)
peptide: Ac-C(BODIPYFLEthylmaleimide)RRRRRRRLKAQADIYKARFQAERHAREK-NH2
SMILES: CC[C@H](C)[C@H](NC(=O)[C@H](CC(=O)O)NC(=O)[C@H](C)NC(=O)[C@H](CCC(N)=O)NC(=O)[C@H](C)NC(=O)[C@H](CCCCN)NC(=O)[C@H](CC(C)C)NC(=O)[C@H](CCCNC(=N)N)NC(=O)[C@H](CCCNC(=N)N)NC(=O)[C@H](CCCNC(=N)N)NC(=O)[C@H](CCCNC(=N)N)NC(=O)[C@H](CCCNC(=N)N)NC(=O)[C@H](CCCNC(=N)N)NC(=O)[C@H](CCCNC(=N)N)NC(=O)[C@H](CSC1CC(=O)N(CCNC(=O)CCC2=[N+]3C(=Cc4c(C)cc(C)n4[B-]3(F)F)C=C2)C1=O)NC(C)=O)C(=O)N[C@@H](Cc1ccc(O)cc1)C(=O)N[C@@H](CCCCN)C(=O)N[C@@H](C)C(=O)N[C@@H](CCCNC(=N)N)C(=O)N[C@@H](Cc1ccccc1)C(=O)N[C@@H](CCC(N)=O)C(=O)N[C@@H](C)C(=O)N[C@@H](CCC(=O)O)C(=O)N[C@@H](CCCNC(=N)N)C(=O)N[C@@H](Cc1c[nH]cn1)C(=O)N[C@@H](C)C(=O)N[C@@H](CCCNC(=N)N)C(=O)N[C@@H](CCC(=O)O)C(=O)N[C@@H](CCCCN)C(N)=O
IC 50 (inhibition of NF-κB activation pathway) [3]: 900 nM

B5: BODIPY-TAT-NLM-DR (peptide)
peptide: Ac-C(BODIPYFLEthylmaleimide)YGRKKRRQRRRLKAQADIYKARFQAERHAREK-NH2
SMILES: CC[C@H](C)[C@H](NC(=O)[C@H](CC(=O)O)NC(=O)[C@H](C)NC(=O)[C@H](CCC(N)=O)NC(=O)[C@H](C)NC(=O)[C@H](CCCCN)NC(=O)[C@H](CC(C)C)NC(=O)[C@H](CCCNC(=N)N)NC(=O)[C@H](CCCNC(=N)N)NC(=O)[C@H](CCCNC(=N)N)NC(=O)[C@H](CCC(N)=O)NC(=O)[C@H](CCCNC(=N)N)NC(=O)[C@H](CCCNC(=N)N)NC(=O)[C@H](CCCCN)NC(=O)[C@H](CCCCN)NC(=O)[C@H](CCCNC(=N)N)NC(=O)CNC(=O)[C@H](Cc1ccc(O)cc1)NC(=O)[C@H](CSC1CC(=O)N(CCNC(=O)CCC2=[N+]3C(=Cc4c(C)cc(C)n4[B-]3(F)F)C=C2)C1=O)NC(C)=O)C(=O)N[C@@H](Cc1ccc(O)cc1)C(=O)N[C@@H](CCCCN)C(=O)N[C@@H](C)C(=O)N[C@@H](CCCNC(=N)N)C(=O)N[C@@H](Cc1ccccc1)C(=O)N[C@@H](CCC(N)=O)C(=O)N[C@@H](C)C(=O)N[C@@H](CCC(=O)O)C(=O)N[C@@H](CCCNC(=N)N)C(=O)N[C@@H](Cc1c[nH]cn1)C(=O)N[C@@H](C)C(=O)N[C@@H](CCCNC(=N)N)C(=O)N[C@@H](CCC(=O)O)C(=O)N[C@@H](CCCCN)C(N)=O
IC 50 (inhibition of NF-κB activation pathway) [3]: 1000 nM
